4 molecules from patent US20160075744, “DNA-BINDING PROTEIN USING PPR MOTIF, AND USE THEREOF” (KYUSHU UNIVERSITY, NATATIONAL UNIVERSITY CORPORATION, published 2016) can be followed below.

In data set [1] the target is T1, pTac2-VP64 (Arabidopsis thaliana, UniProt Q9S7Q2 SEQ:106-632).
T1 chain: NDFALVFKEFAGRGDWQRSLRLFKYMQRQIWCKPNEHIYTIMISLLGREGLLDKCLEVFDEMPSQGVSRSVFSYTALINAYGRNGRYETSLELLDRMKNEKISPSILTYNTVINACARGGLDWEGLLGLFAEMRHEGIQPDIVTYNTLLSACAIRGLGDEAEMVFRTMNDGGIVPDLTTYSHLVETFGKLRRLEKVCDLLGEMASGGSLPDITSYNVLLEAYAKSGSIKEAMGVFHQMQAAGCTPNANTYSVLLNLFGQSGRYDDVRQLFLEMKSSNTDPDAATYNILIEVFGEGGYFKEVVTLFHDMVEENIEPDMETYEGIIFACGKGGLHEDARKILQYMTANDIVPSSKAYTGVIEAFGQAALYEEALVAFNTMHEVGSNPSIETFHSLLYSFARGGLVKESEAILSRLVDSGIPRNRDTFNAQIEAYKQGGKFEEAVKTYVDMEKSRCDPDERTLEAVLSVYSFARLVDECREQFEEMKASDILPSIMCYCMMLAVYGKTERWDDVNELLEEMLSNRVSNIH
In words: cell_activity; HEK293T dual luciferase, 4x target, vs pminCMV-luc2. The protocol: (§1) The PPR-VP64 expression vector prepared in the section 1, the firefly luciferase expression vector prepared in the section 2, and the pRL-CMV vector (expression vector for Renilla luciferase, Promega) as a reference were introduced by using Lipofectamine LTX (Life Technologies). The DMEM medium (25 μl) was added to each well of a 96-well plate, and a mixture containing the PPR-VP64 expression vector (400 ng), firefly luciferase expression vector (100 ng), and pRL-CMV vector (20 ng) was further added. Then, a mixture of the DMEM medium (25 μl) and Lipofectamine LTX (0.7 μl) was added to each well, the plate was left standing at room temperature for 30 minutes, then 6×10⁴ of the HEK293 T cells suspended in the DMEM medium containing 15% fetal bovine serum (100 μl) were added, and the cells were cultured at 37° C. in a CO₂ incubator for 24 hours.
(§2) The luciferase activity was compared for the cases of introducing pTac2-VP64 or GUN1-VP64 together with pminCMV-luc2 for a negative control, or the reporter vector having 4 or 8 target sequences (table mentioned below, FIG. 6). The comparison of the activity was performed on the basis of standardized scores obtained by dividing the measured values obtained with Fluc (firefly luciferase) with the measured value obtained with Rluc (Renilla luciferase) as the reference (Fluc/Rluc). […]

In data set [2] the target is T1, pTac2-VP64. Description: cell_activity; HEK293T dual luciferase, 8x target, vs pminCMV-luc2. As to the method:
as §1, §2

Data set [3] addresses T2, GUN1-VP64 (Arabidopsis thaliana, UniProt Q9SIC9 SEQ:234-620).
T2 chain: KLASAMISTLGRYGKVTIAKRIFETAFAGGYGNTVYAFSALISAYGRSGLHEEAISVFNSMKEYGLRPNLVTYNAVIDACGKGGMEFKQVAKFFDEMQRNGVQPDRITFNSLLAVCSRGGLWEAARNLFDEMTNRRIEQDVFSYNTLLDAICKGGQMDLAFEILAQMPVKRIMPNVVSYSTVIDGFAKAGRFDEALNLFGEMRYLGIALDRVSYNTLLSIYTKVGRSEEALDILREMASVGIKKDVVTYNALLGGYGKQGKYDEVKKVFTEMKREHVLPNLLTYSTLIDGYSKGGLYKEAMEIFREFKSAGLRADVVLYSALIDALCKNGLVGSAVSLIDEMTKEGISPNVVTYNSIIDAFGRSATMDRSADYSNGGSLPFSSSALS
Described as above. As to the method: as §1, §2

Data set [4] concerns the target T2, GUN1-VP64. Description: cell_activity; HEK293T dual luciferase, 4x target, vs pminCMV-luc2. As to the method: as §1, §2

B1: pTac2 target (4x in reporter) (dsDNA)
DNA 1: AACTTTCGTCACTCA
DNA 2: TGAGTGACGAAAGTT
For the molecule B1, the activity with pTac2-VP64 [1] came to 2.91 fold activation.

B2: pTac2 target (8x in reporter) (dsDNA)
DNA 1: AACTTTCGTCACTCA
DNA 2: TGAGTGACGAAAGTT
Take B2: in the data set with pTac2-VP64 [2], the activity stood at 4.81 fold activation.

B3: GUN1 target (8x in reporter) (dsDNA)
DNA 1: AATTTGTCGAT
DNA 2: ATCGACAAATT
With B3, the activity with GUN1-VP64 [3] was 3.15 fold activation.

B4: GUN1 target (4x in reporter) (dsDNA)
DNA 1: AATTTGTCGAT
DNA 2: ATCGACAAATT
Turning to B4, the activity with GUN1-VP64 [4] was 2.88 fold activation.
